B1: マウスJ鎖 (J鎖のみを発現する植物) (other, mouse, UniProt P01592 22-159, looked up)
chain: GDDEATILADNKCMCTRVTSRIIPSTEDPNEDIVERNIRIVVPLNNRENISDPTSPLRRNFVYHLSDVCKKCDPVEVELEDQVVTATQSNICNEDDGVPETCYMYDRNKCYTTMVPLRYHGETKMVQAALTPDSCYPD
notes: Tested as extract of tobacco plants that express J chain only, or by co-expression

Assays:
精製連鎖球菌抗原(SA)I/II [1] = biological target: T1, 精製連鎖球菌抗原(SA)I/II (Streptococcus mutans, UniProt P23504 39-1532); assay: competition ELISA on purified SA I/II; competitor 125I-labelled mouse Guy's13
T1 construct: Purified antigen; also called 固定化精製連鎖球菌抗原
T1 sequence (looked up): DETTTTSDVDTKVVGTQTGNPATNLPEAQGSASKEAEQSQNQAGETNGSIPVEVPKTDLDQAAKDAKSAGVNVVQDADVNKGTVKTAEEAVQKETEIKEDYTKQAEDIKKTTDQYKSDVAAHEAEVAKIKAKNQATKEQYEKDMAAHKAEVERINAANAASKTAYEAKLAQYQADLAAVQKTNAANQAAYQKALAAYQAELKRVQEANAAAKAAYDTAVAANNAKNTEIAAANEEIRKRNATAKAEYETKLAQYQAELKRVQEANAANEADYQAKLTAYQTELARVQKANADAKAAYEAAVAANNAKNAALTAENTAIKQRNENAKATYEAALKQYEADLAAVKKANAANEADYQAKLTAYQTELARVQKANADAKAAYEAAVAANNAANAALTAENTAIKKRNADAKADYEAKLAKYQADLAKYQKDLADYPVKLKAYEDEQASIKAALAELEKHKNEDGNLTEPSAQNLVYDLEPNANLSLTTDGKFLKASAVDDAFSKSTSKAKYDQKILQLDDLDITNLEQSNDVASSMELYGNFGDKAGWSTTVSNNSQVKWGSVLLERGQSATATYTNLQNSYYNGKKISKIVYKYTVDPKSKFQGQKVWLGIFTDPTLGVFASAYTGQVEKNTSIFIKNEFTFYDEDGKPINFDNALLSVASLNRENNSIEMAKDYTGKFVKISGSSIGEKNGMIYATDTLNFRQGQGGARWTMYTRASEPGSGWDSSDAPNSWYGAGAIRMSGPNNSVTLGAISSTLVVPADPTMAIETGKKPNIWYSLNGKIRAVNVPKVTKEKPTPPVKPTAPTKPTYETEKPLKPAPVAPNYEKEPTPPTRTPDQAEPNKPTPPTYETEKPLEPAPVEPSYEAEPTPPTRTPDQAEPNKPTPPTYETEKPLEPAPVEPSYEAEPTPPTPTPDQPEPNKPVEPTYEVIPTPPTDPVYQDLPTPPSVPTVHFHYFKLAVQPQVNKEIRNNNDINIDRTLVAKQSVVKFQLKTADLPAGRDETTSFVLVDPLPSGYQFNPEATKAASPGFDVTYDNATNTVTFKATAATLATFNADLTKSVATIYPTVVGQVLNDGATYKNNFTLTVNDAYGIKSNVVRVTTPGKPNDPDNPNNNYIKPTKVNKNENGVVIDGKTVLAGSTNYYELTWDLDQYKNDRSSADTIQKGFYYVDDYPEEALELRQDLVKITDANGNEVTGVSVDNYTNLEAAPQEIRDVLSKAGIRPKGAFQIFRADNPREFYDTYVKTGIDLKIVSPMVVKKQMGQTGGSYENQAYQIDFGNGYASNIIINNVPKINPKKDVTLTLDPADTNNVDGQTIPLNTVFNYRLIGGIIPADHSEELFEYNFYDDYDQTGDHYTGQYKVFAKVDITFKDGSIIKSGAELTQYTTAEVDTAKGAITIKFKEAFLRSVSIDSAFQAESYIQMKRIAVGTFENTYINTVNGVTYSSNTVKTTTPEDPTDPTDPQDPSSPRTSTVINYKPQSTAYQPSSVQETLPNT

精製連鎖球菌抗原(SA)I/II [2] = biological target: T1, 精製連鎖球菌抗原(SA)I/II; assay: ELISA on SA I/II, plant extracts

Molecule	標識マウスGuy's13の阻害% (精製連鎖球菌抗原(SA)I/II [1])	binding result (精製連鎖球菌抗原(SA)I/II [2])
植物G13 (本来のガンマ重鎖のGuy's13IgG、タバコで発現) (antibody)	< 85%	
植物G2/A (var−γ1−γ2−α2−α3ドメインを含むIgG/IgAハイブリッド重鎖のGuy's13) (from UniProt P01878 101-344) (antibody)	< 85%	
植物G1/A (Guy's13可変領域−(IgG1 CH1)−(IgA CH2)−(IgA CH3) ハイブリッド重鎖とカッパ鎖) (from UniProt P01878 101-344) (antibody)	< 85%	
B1		no binding
